Measured values: patent publication US20190240330A1

Tests used:
[1] = biological target: human epidermal growth factor receptor 1 (EGFR1), on the surface of HSC-2 and FaDu tumor cells (human) (UniProt P00533); assay: flow cytometry, AlexaFluor488-labeled compound 5 ug/ml, 3 h at +37 C, HSC-2 cells; cell surface bound plus internalized, normalized to degree of labeling
[2] = biological target: human epidermal growth factor receptor 1 (EGFR1), on the surface of HSC-2 and FaDu tumor cells (human) (UniProt P00533); assay: tritium-labeled compound 5 ug/ml, 3 h at +37 C, FaDu cells, scintillation counting of cell lysate; internalized plus cell surface bound; mean +/- S.D. of three
[3] = biological target: human epidermal growth factor receptor 1 (EGFR1), on the surface of HSC-2 and FaDu tumor cells (human) (UniProt P00533); assay: flow cytometry, AlexaFluor488-labeled compound 5 ug/ml, 3 h at +37 C, FaDu cells; cell surface bound plus internalized, normalized to degree of labeling

Substance | Normalized mean fluorescence intensity [1] | % internalized/100000 cells [2] [%] | Normalized mean fluorescence intensity [3]
Control-mAb (omalizumab, anti-IgE) (antibody) | 700 | 0.01 | 
Control-Fab (Fab fragment of omalizumab) | 1160 |  | 970
Control-F(ab')2 (F(ab')2 fragment of omalizumab) | 823 |  | 443
